# Results: US20230310631A1, “THERAPEUTIC USE OF GLUCAGON DERIVATIVE OR CONJUGATE THEREOF FOR LIVER DISEASE” (HANMI PHARM. CO., LTD., priority 2020, published 2023)
# Bridge positions count the residues as written; N and C are the ends. Square brackets hold non-standard residues; d marks the D form. Ends that are not written are not given here. Aib = CC(C)(N)C(=O)O
# Biological target: human glucagon receptor (human, UniProt P47871 26-477)
# Test: cell-based or functional assay
# Sequence of human glucagon receptor (P47871 26-477): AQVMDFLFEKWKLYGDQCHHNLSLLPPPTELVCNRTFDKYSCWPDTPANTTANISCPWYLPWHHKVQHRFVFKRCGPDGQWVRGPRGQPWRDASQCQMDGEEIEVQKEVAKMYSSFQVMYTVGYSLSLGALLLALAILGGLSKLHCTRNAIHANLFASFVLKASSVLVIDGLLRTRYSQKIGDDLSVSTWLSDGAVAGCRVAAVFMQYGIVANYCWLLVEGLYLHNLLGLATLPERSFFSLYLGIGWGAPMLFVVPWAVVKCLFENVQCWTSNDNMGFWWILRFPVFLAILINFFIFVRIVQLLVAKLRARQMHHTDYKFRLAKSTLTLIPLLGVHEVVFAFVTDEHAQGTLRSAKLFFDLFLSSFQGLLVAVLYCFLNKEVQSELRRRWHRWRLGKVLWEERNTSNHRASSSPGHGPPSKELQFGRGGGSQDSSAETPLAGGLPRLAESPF
row,"In vitro Activity (relative activity to SEQ ID NO: 1, %); cAMP assay, from EC50",Binder
1,37.9%,Y[Aib]QGTFCSDYSKYLDSRRAQDFVQWLMNT [glucagon derivative of SEQ ID NO: 42]
2,300%,Y[Aib]QGTFTSDYSKYLDECRAKEFVQWLMNT (lactam 16-20) [glucagon derivative of SEQ ID NO: 20]
3,45.2%,Y[Aib]QGTFCSDYSKYLDERRAKDFVQWLMNT (lactam 16-20) [glucagon derivative of SEQ ID NO: 41]
4,17.7%,Y[Aib]QGTFTSDYSKYCDERRAKEFVQWLMNT (lactam 16-20) [glucagon derivative of SEQ ID NO: 35]
5,0.6%,HSQGTFTSDYSKYLDCDRAQDFVQWLMNT [glucagon derivative of SEQ ID NO: 2]
6,< 0.1%,HSQGTFTSDYSKYLDSCDAQDFVQWLMNT [glucagon derivative of SEQ ID NO: 4]
7,9.9%,Y[Aib]QGTFTSDCSKYLDERRAKEFVQWLMNT (lactam 16-20) [glucagon derivative of SEQ ID NO: 36]
8,5.2%,Y[Aib]QGTFTSDYSCYLDEKRAKEFVQWLMNT [glucagon derivative of SEQ ID NO: 45]
9,< 0.1%,HSQGTFTSDYSKYLDSCEADDFVQWLMNT [glucagon derivative of SEQ ID NO: 6]
10,148%,Y[Aib]QGTFTSDYSKYLDEKRCKEFVQWLMNT (lactam 16-20) [glucagon derivative of SEQ ID NO: 22]
11,75.4%,YXQGTFTSDYSKYLDSRRAQDFVQWLMNTC (X at position 2 = aminoisobutyric acid (Aib)) [glucagon derivative of SEQ ID NO: 44]
12,226%,Y[Aib]QGTFTSDYSKYLDERRAKEFVQWLMNTC (lactam 16-20) [glucagon derivative of SEQ ID NO: 37]
13,< 0.1%,Y[Aib]QGTFTSDYSKYLDSCDAQDFVQWLINT [glucagon derivative of SEQ ID NO: 8]
14,< 0.1%,YSQGTFTSDYSKYLDSCEADDFVQWLMNT [glucagon derivative of SEQ ID NO: 7]
15,5.2%,Y[Aib]QGTFTSDYSCYLDSRRAQDFVQWLMNT [glucagon derivative of SEQ ID NO: 13]
16,18.1%,Y[Aib]QGTFTSDYSKYLDCKRAKEFVQWLMNT (not fully specified (bridges)) [glucagon derivative of SEQ ID NO: 14]
17,167%,Y[Aib]QGTFCSDYSKYLDERRAKEFVQWLMNT (lactam 16-20) [glucagon derivative of SEQ ID NO: 38]
18,0.2%,W[Aib]QGTFTSDYSKYCDERRAKEFVQWLMNT (lactam 16-20) [glucagon derivative of SEQ ID NO: 34]
19,0.3%,W[Aib]QGTFTSDYSKCLDERRAKDFVQWLMNT (lactam 16-20) [glucagon derivative of SEQ ID NO: 30]
20,56.3%,Y[Aib]QGTFTSDYSKYLDEKRAKEFVQWLMNTC (lactam 16-20) [glucagon derivative of SEQ ID NO: 12]
21,3.7%,Y[Aib]QGTFVSDCSKYLDERRAKDFVQWLMNT (lactam 16-20) [glucagon derivative of SEQ ID NO: 39]
22,23.2%,Y[Aib]QGTFTSDYSKYLDCVRAQDFVQWLMRT [glucagon derivative of SEQ ID NO: 17]

row,"In vitro Activity (relative activity to SEQ ID NO: 1, %); cAMP assay, from EC50",Binder
1,< 0.1%,Y[Aib]QGTFTSDYSKYLDSCDADDFVVWLINT [glucagon derivative of SEQ ID NO: 10]
2,58%,Y[Aib]QGTFTSDYSKCLDEKRAKEFVQWLMNT (lactam 16-20) [glucagon derivative of SEQ ID NO: 24]
3,1.1%,Y[Aib]QGTFTSDYSKYLCEKRAQDFVVWLMNT [glucagon derivative of SEQ ID NO: 15]
4,0.7%,SQGTFTSDYSKYLDECRAKEFVQWLMNT (lactam 15-19) [glucagon derivative of SEQ ID NO: 32]
5,1%,W[Aib]QGTFTSDYSKYLDECRAKDFVQWLMNT (lactam 16-20) [glucagon derivative of SEQ ID NO: 26]
6,4.2%,Y[Aib]QGTFTSDYSKYLDCRRAQVFVQWLMRT [glucagon derivative of SEQ ID NO: 16]
7,46.9%,Y[Aib]QGTFTSDYSKYLDEKRAKCFVQWLMNT (lactam 16-20) [glucagon derivative of SEQ ID NO: 25]
8,< 0.1%,Y[Aib]QGTFTSDYSKYLDSCDAQDFVVWLINT [glucagon derivative of SEQ ID NO: 9]
9,76.8%,Y[Aib]QGTFTSDYSKYCDEKRAKEFVQWLMNT (lactam 16-20) [glucagon derivative of SEQ ID NO: 23]
10,6.1%,HSQGTFTSDYSKYLDCERAQDFVQWLMNT [glucagon derivative of SEQ ID NO: 3]
11,4.6%,Y[Aib]QGTFTSDYSKYLDEKCAKEFVQWLMNT (not fully specified (bridges)) [glucagon derivative of SEQ ID NO: 11]
12,< 0.1%,W[Aib]QGTFVSDYSKYLDECRAKDFVQWLMNT (lactam 16-20) [glucagon derivative of SEQ ID NO: 28]
13,40.8%,Y[Aib]QGTFVSDYSKYLDERRAKDFVQWLMNTC (lactam 16-20) [glucagon derivative of SEQ ID NO: 40]
14,108%,YXQGTFTSDYSKYLDSRRAQDFVQWLMNT (X at position 2 = aminoisobutyric acid (Aib)) [glucagon derivative of SEQ ID NO: 33]
15,12.1%,Y[Aib]QGTFTSDYSKYLCEKRAKEFVQWLMNT (lactam 16-20) [glucagon derivative of SEQ ID NO: 19]
16,61.3%,Y[Aib]QGTFTSDYSKCLDERRAKDFVQWLMNT (lactam 16-20) [glucagon derivative of SEQ ID NO: 29]
17,6.3%,Y[Aib]QGTFTSDYSKYLDCKRAKEFVQWLMNT (lactam 17-21) [glucagon derivative of SEQ ID NO: 31]
18,93.6%,Y[Aib]QGTFVSDYSKYLDECRAKDFVQWLMNT (lactam 16-20) [glucagon derivative of SEQ ID NO: 27]
19,1.6%,Y[Aib]QGTFTSDCSKYLDSRRAQDFVQWLMNT [glucagon derivative of SEQ ID NO: 43]
20,< 0.1%,Y[Aib]QGTFTSDYSKYLDSRRACDFRLWLMNT [glucagon derivative of SEQ ID NO: 18]
21,57.8%,Y[Aib]QGTFTSDYSKYLDEKCAKEFVQWLMNT (lactam 16-20) [glucagon derivative of SEQ ID NO: 21]
22,0.3%,HSQGTFTSDYSKYLDSCEAQDFVQWLMNT [glucagon derivative of SEQ ID NO: 5]
